# Data reported in US20260193342A1 (ZOETIS SERVICES, published 2026).
# Positions count from the first letter of the chain named. In names and notes the source's numbering stands.
# B1: mAb2 of Table 4A, caninized anti-NGF antibody ZTS-841, canine IgGA, WT (antibody)
# heavy: EVQLVESGGDLVKPGGSLRLSCVASGFTFSSHGMHWVRQSPGKGLQWVAVINSGGSSTYYTDAVKGRFTISRDNAKNTVYLQMNSLRAEDTAMYYCAKESVGGWEQLVGPHFDYWGQGTLVIVSSASTTAPSVFPLAPSCGSTSGSTVALACLVSGYFPEPVTVSWNSGSLTSGVHTFPSVLQSSGLHSLSSMVTVPSSRWPSETFTCNVVHPASNTKVDKPVFNECRCTDTPPCPVPEPLGGPSVLIFPPKPKDILRITRTPEVTCVVLDLGREDPEVQISWFVDGKEVHTAKTQSREQQFNGTYRVVSVLPIEHQDWLTGKEFKCRVNHIDLPSPIERTISKARGRAHKPSVYVLPPSPKELSSSDTVSITCLIKDFYPPDIDVEWQSNGQQEPERKHRMTPPQLDEDGSYFLYSKLSVDKSRWQQGDPFTCAVMHETLQNHYTDLSLSHSPGK
# VL: QSVLTQPTSVSGSLGQRVTISCSGSTNNIGILGASWYQLFPGKAPKLLVYGNGNRPSGVPDRFSGADSGDSVTLTITGLQAEDEADYYCQSFDTTLGAHVFGGGTHLTVL
# notes: also called ID No. 39
# B2: mAb2 of Table 4A, caninized anti-NGF antibody ZTS-841, canine IgGA, N434F (antibody)
# heavy: B1 heavy with N443F
# VL: B1 VL
# notes: also called ID No. 40
# B3: mAb2 of Table 4A, caninized anti-NGF antibody ZTS-841, canine IgGA, N434R (antibody)
# heavy: B1 heavy with N443R
# VL: B1 VL
# notes: also called ID No. 42
# B4: mAb2 of Table 4A, caninized anti-NGF antibody ZTS-841, canine IgGA, N434S (antibody)
# heavy: B1 heavy with N443S
# VL: B1 VL
# notes: also called ID No. 43
# B5: mAb2 of Table 4A, caninized anti-NGF antibody ZTS-841, canine IgGA, N434H (antibody)
# heavy: B1 heavy with N443H
# VL: B1 VL
# notes: also called ID No. 41
# B6: mAb1, caninized anti-IL31 antibody 34D03, canine IgGA, WT (antibody)
# heavy: EVQLVESGGDLVKPGGSLRLSCVASGFTFSNYGMSWVRQAPGKGLQWVATISYGGSYTYYPDNIKGRFTISRDNAKNTLYLQMNSLRAEDTAMYYCVRGYGYDTMDYWGQGTLVTVSSASTTAPSVFPLAPSCGSTSGSTVALACLVSGYFPEPVTVSWNSGSLTSGVHTFPSVLQSSGLHSLSSMVTVPSSRWPSETFTCNVVHPASNTKVDKPVFNECRCTDTPPCPVPEPLGGPSVLIFPPKPKDILRITRTPEVTCVVLDLGREDPEVQISWFVDGKEVHTAKTQSREQQFNGTYRVVSVLPIEHQDWLTGKEFKCRVNHIDLPSPIERTISKARGRAHKPSVYVLPPSPKELSSSDTVSITCLIKDFYPPDIDVEWQSNGQQEPERKHRMTPPQLDEDGSYFLYSKLSVDKSRWQQGDPFTCAVMHETLQNHYTDLSLSHSPGK
# VL: EIVMTQSPASLSLSQEEKVTITCKASQSVSFAGTGLMHWYQQKPGQAPKLLIYRASNLEAGVPSRFSGSGSGTDFSFTISSLEPEDVAVYYCQQSREYPWTFGQGTKLEIK
# notes: VH/VL: the caninized 34D03 entries of the listing; also called ID No. 1
# B7: mAb1, caninized anti-IL31 antibody 34D03, canine IgGA, N434R (antibody)
# chain 1: B6 heavy with N436R
# chain 2: EIVMTQSPASLSLSQEEKVTITCKASQSVSFAGTGLMHWYQQKPGQAPKLLIYRASNLEAGVPSRFSGSGSGTDFSFTISSLEPEDVAVYYCQQSREYPWTFGQGTKLEIKRNDAQPAVYLFQPSPDQLHTGSASVVCLLNSFYPKDINVKWKVDGVIQDTGIQESVTEQDKDSTYSLSSTLTMSSTEYLSHELYSCEITHKSLPSTLIKSFQRSEC
# B8: mAb1, caninized anti-IL31 antibody 34D03, canine IgGA, N434H (antibody)
# chain 1: B6 heavy with N436H
# chain 2: B7 chain 2
# B9: mAb1, caninized anti-IL31 antibody 34D03, canine IgGA, N434W (antibody)
# heavy: B6 heavy with N436W
# light: B7 chain 2
# notes: VH/VL: the caninized 34D03 entries of the listing; also called ID No. 6; copies: 2 + 2
# B10: mAb1, caninized anti-IL31 antibody 34D03, canine IgGA, N434F (antibody)
# chain 1: B6 heavy with N436F
# chain 2: B7 chain 2
# Molecular target: canine FcRn complex (FcRn-α subunit and β-microglobulin) (canine, UniProt A0A8I3PFR8 25-347, biotin on the BAP tag by BirA (Example 5 only))
# Experiment: SPR (Biacore), biotinylated FcRn on SA chip, IgG flowed, pH 6, 15 C
# Chain of canine FcRn complex (FcRn-α subunit and β-microglobulin) (A0A8I3PFR8 entry or part of it, one chain of several): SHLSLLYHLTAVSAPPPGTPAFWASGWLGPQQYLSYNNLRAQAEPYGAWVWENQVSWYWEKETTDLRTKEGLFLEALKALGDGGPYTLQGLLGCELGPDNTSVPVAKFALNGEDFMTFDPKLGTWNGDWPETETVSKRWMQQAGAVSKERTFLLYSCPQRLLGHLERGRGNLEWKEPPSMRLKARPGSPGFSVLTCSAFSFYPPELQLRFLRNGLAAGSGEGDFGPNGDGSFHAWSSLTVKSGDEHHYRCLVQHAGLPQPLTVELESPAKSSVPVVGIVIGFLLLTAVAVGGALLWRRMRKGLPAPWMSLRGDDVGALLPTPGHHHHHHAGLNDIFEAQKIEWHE
row,Binder,Kd [nM]
1,B1,95.5
2,B2,9.81
3,B3,15.1
4,B4,147
5,B5,10.4
6,B6,79.9
7,B7,43.8
8,B8,12.3
9,B9,19.9
10,B10,12.7
